Test results as given in the supplement of paper PMC12764529.
± gives the half width of the 95% confidence interval.

Key:
[1] = folding stability dG unfold from trypsin proteolysis; higher = more stable
How it was run: (§1)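 How resistant each design was to proteolysis was captured as K50, inferred by Bayesian fitting of sequencing counts. Unfolding free energy was then derived relative to a sequence-predicted unfolded-state K50 and a shared folded-state K50, per protease or combined. Digestion used trypsin and chymotrypsin at 11 threefold-diluted concentrations plus a no-protease condition, on mini-proteins under 80 residues without cysteine in a PA-tagged cDNA display construct. Designs were kept only when AlphaFold2 dimer inter-PAE was above 15.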

[2] = folding stability dG unfold from chymotrypsin proteolysis; higher = more stable
How it was run: as §1

[3] = folding stability dG unfold (combined trypsin and chymotrypsin); higher = more stable
How it was run: as §1

Sequence | folding stability dG unfold [1] [kcal/mol] | folding stability dG unfold [2] [kcal/mol] | folding stability dG unfold [3] [kcal/mol]
SAGKVIVIDAEEMTEEELKEILKKTKPGEKILIIAKSKEVAEKLKELGFEVEEVEKVPLTEEELKKLKKSAG [r5_354_TrROS_Hall] | 0.835 ± 0.063 | 1.27 ± 0.028 | 1.08 ± 0.14
SAGKWKVRTIPLPGFSITIWYDPDEGRIRISITMWMWKPKKDPENGKPKQEHRMMTMEAPIPIPPGAPISAG [r5_195_TrROS] | 1.86 ± 0.074 | 2.51 ± 0.29 | 2.3 ± 0.27
SAGKWVTIEIPIYIPGNPSQLKDLVEEIANILAAHGMKINVDVEVYPVDDYYIVKITVTVRMPPGMPIISAG [r5_217_TrROS] | 3.75 ± 0.17 | 3.23 ± 0.1 | 3.41 ± 0.19
SAGKYKIKNVQFSNNSITIEIYDDGKPKAEIPIPPNFPNMKVDAEIDEDGSIKIKFRFNGQPQEIEIPPSAG [r5_533_TrROS] | 0.819 ± 0.057 | 1.54 ± 0.17 | 1.25 ± 0.31
SAGLDIKKIEFDPNGYLRIEVVYDKNISIKEIIEEIKKLTGATVEKVEVKPTKNGVKAIFILKIDKNLKSAG [r5_774_TrMRF] | 1.12 ± 0.042 | 3.052 ± 0.021 | 2.6 ± 0.11
SAGLEDAQKEKRFVIKIEIRHPNGEKVKMTIAFKPGDPEDIRDELRKMGMPPDDLNERNPNLKIDEIEPSAG [r5_430_TrROS] | 0.646 ± 0.084 | 1.59 ± 0.079 | 1.29 ± 0.11
SAGLKVESQTYDPATGTATVTPPLEGVPPDYTITVTDTATGKKTTLPPDGDVTLSNPTGPVTVTLTRPASAG [r14_134_JUSTAS] | 0.152 ± 0.038 | 0.354 ± 0.093 | 0.277 ± 0.074
SAGLKVRIRTKDGREIEIEVSEEEAERLVKELEDAGFTVERVEVEELEPEEEKEELEEEERELKEELEESAG [r5_645_TrROS_Hall] | 3.28 ± 0.27 | 2.91 ± 0.069 | 2.72 ± 0.32
SAGLRIEPTPDYIKITMPGPNMANEIIKKIQEHFGDIEIDDIKPEPYPNGNNRVTIWIPLKNLPPELLKSAG [r5_857_TrROS] | 0.895 ± 0.028 | 1.18 ± 0.085 | 1.06 ± 0.07
SAGMAEEAREAARLFASELAPRFGVEAEIPEVRVEFDPETGEVHVHLEVLFRLPEPRTVRRDFVLVLPLSAG [r5_381_TrMRF] | 1.3 ± 0.086 | 1.92 ± 0.13 | 1.67 ± 0.1
SAGMAKVKLKVEVYFPKTGKPVTMEIEVEGLTLEEIIEEVKKAIEAIGLKIDPDAPVKIVITDIEVYPGSAG [r5_230_TrMRF] | 3.75 ± 0.11 | 3.77 ± 0.039 | 3.77 ± 0.077
SAGMARIIPNPPVIEVVRKDGSKLVIPPEEIEELRAALEAKGGPYTPEEIAEAIRKLFPDYEVSIVPASAGG [r19_46_TrMRF] | -0.284 ± 0.38 | -0.0899 ± 0.17 | -0.109 ± 0.22
SAGMDFPESYTPIASNGKTLVFKSPTEVYIVLYSPEGGSEVRSFTPGDESVLNPFLEELKKSDYVNLNISAG [r14_12_JUSTAS] | 0.695 ± 0.028 | 1.1 ± 0.087 | 0.995 ± 0.093
SAGMDKPLKVLEIGGAILPNTGKVVLKAKVEDPDSNTPLDLTLTLPVVDPVTGKPYIFTASYTYESPLSAGG [r19_129_TrMRF] | 0.338 ± 0.13 | 0.844 ± 0.17 | 0.681 ± 0.12
SAGMEAIRKKAEELAKKGKIFKITLTGPDGIPETKILSPEEFKKFLEEFPDPEAIASVEVEAYEPGKPISAG [r5_957_JUSTAS] | 2.35 ± 0.1 | 3.78 ± 0.046 | 3.24 ± 0.1
SAGMEIEITGPNLEELAEKVAKELKEKNWSPPVTITLKEPGGKTVLKVTVEFNPPNPNEIKVTKEKVESAGG [r19_85_JUSTAS] | 0.571 ± 0.14 | 0.902 ± 0.062 | 0.683 ± 0.18
SAGMEKAINLAKEYAKKLGLPLESINVTEIGNSVIIEMKIPEKGETITVNIPIHPDGTISLNIKFEKKKSAG [r5_888_JUSTAS] | 1.2 ± 0.037 | 2.623 ± 0.019 | 2.09 ± 0.087
SAGMEKKTLTVTHPDGSEATVEVYKNPETGKYVTLVHYPETGKYEVFDDNGNLIATFGNGSAADAFKAISAG [r5_757_TrMRF] | 0.375 ± 0.054 | 1.8 ± 0.1 | 1.44 ± 0.13
